According to the supplement of paper PMC7877785:
± gives the uncertainty stated by the source.

Experiment: self-splicing fitness, log relative to wild type (ln ratio); higher = more splicing; Tetrahymena group I intron in knt gene, E. coli kanamycin selection, DiMSum; sequences stand for … in CUCUCU…GGAGGGAAAAGUUAUCAGGCAUGCACCUGGUAGCUAGUCUUUAAACCAAUAGAUUGCAUCGGUUUAAAAGGCAAGACCGUCAAAUUGCGGGAAAGGGGUCAACAGCCGUUCAGUACCAAGUCUCAGGGGAAACUUUGAGAUGGCCUUGCAAAGGGUAUGGUAAUAAGCUGACGGACAUGGUCCUAACCACGCAGCCAAGUCCUAAGUCAACAGAUCUUCUGUUGAUAUGGAUGCAGUUCACAGACUAAAUGUCGGUCGGGGAAGAUGUAUUCUUCUCAUAAGAUAUAGUCGGACCUCUCCUUAAUGGGAGCUAGCGGAUGAAGUGAUGCAACACUGGAGCCGCUGGGAACUAAUUUGUAUGCGAAAGUAUAUUGAUUAGUUUUGGAGUACUCGUGGUCG
In short: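 A randomised library covering all eight P1ex-region intron nucleotides was built with the intron in the knt kanamycin-resistance gene on pET-22b(+) and held in E. coli BL21(DE3). Cells were grown overnight at 37°C or 30°C on LB agar, with or without 25 μg/mL kanamycin, plus 100 μg/mL carbenicillin, 50 μM IPTG and 0.2% rhamnose, and pooled colonies were amplicon-sequenced on an Illumina HiSeq 2500. DiMSum fitness is the error-weighted combination of wild-type-normalised replicate fold changes, kanamycin versus none.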

For CGCCAGCAAUAUUACGCGAG, which “self-splicing fitness (ln)” value (30 °C) is on record?
Its value is -4.1 ± 0.18.

What about the “self-splicing fitness (ln)” value (37 °C) of the same sequence?
The value was -2.97 ± 0.25.

For CGCCAGCAAUAUUACGCUCC, which “self-splicing fitness (ln)” value (30 °C) is on record?
The value was -0.395 ± 0.13.

What about the “self-splicing fitness (ln)” value (37 °C) of the same sequence?
The value was -1.36 ± 0.2.

For CGCCAGCAAUAUUACGCUGG, which “self-splicing fitness (ln)” value (30 °C) is on record?
Its value is -3.22 ± 0.17.

And the “self-splicing fitness (ln)” value (37 °C)?
The value was -2.2 ± 0.18.

With CGCCAGCAAUAUUACGCUUC as the sequence, how does the “self-splicing fitness (ln)” value (30 °C) read?
The value was -2.77 ± 0.26.

And the “self-splicing fitness (ln)” value (37 °C)?
The value was -3.27 ± 0.37.

For CGCCAGCAAUAUUACGGAAC, which “self-splicing fitness (ln)” value (30 °C) is on record?
Its value is -2.64 ± 0.23.

What about the “self-splicing fitness (ln)” value (37 °C) of the same sequence?
Its value is -1.52 ± 0.24.

Which results are given for CGCCAGCAAUAUUACGGACA?
self-splicing fitness (ln) (30 °C): -0.882 ± 0.11; self-splicing fitness (ln) (37 °C): -0.254 ± 0.11

Which “self-splicing fitness (ln)” value (30 °C) does the source give for CGCCAGCAAUAUUACGGAUA here?
Its value is -1.77 ± 0.18.

And the “self-splicing fitness (ln)” value (37 °C)?
The value was -1.32 ± 0.21.

Which “self-splicing fitness (ln)” value (30 °C) does the source give for CGCCAGCAAUAUUACGGAUG here?
Its value is -2.64 ± 0.1.

And the “self-splicing fitness (ln)” value (37 °C)?
The value was -1.25 ± 0.087.

Which “self-splicing fitness (ln)” value (30 °C) does the source give for CGCCAGCAAUAUUACGGAUU here?
The value was -3.66 ± 0.19.

And the “self-splicing fitness (ln)” value (37 °C)?
The value was -0.897 ± 0.097.

Which “self-splicing fitness (ln)” value (30 °C) does the source give for CGCCAGCAAUAUUACGGGAA here?
The value was -2.84 ± 0.12.

What about the “self-splicing fitness (ln)” value (37 °C) of the same sequence?
Its value is -1.64 ± 0.1.

Which “self-splicing fitness (ln)” value (30 °C) does the source give for CGCCAGCAAUAUUACGGGAU here?
The value was -3.96 ± 0.27.

What about the “self-splicing fitness (ln)” value (37 °C) of the same sequence?
Its value is -2.32 ± 0.28.

For CGCCAGCAAUAUUACGGGUU, which “self-splicing fitness (ln)” value (30 °C) is on record?
Its value is -2.64 ± 0.1.

And the “self-splicing fitness (ln)” value (37 °C)?
Its value is -2.18 ± 0.12.

With CGCCAGCAAUAUUACGGUGA as the sequence, how does the “self-splicing fitness (ln)” value (30 °C) read?
Its value is -1.98 ± 0.11.

And the “self-splicing fitness (ln)” value (37 °C)?
Its value is -1.84 ± 0.11.

With CGCCAGCAAUAUUACGUAUC as the sequence, how does the “self-splicing fitness (ln)” value (30 °C) read?
The value was -3.94 ± 0.33.

And the “self-splicing fitness (ln)” value (37 °C)?
The value was -3.92 ± 0.42.

What does the source list for CGCCAGCAAUAUUACGUCUU?
self-splicing fitness (ln) (30 °C): -3.58 ± 0.25; self-splicing fitness (ln) (37 °C): -1.45 ± 0.2

For CGCCAGCAAUAUUACGUGAA, which “self-splicing fitness (ln)” value (30 °C) is on record?
The value was -1.76 ± 0.1.

And the “self-splicing fitness (ln)” value (37 °C)?
Its value is -1.1 ± 0.14.

With CGCCAGCAAUAUUACGUUCC as the sequence, how does the “self-splicing fitness (ln)” value (30 °C) read?
The value was -2.71 ± 0.16.

What about the “self-splicing fitness (ln)” value (37 °C) of the same sequence?
The value was -1.67 ± 0.37.

For CGCCAGCAAUAUUACGUUCG, which “self-splicing fitness (ln)” value (30 °C) is on record?
The value was -1.18 ± 0.069.

What about the “self-splicing fitness (ln)” value (37 °C) of the same sequence?
The value was 0.325 ± 0.086.

With CGCGAGCAAUAUUACGAAGC as the sequence, how does the “self-splicing fitness (ln)” value (37 °C) read?
The value was -1.75 ± 0.45.

For CGCGAGCAAUAUUACGACAG, which “self-splicing fitness (ln)” value (30 °C) is on record?
The value was -0.942 ± 0.11.

What about the “self-splicing fitness (ln)” value (37 °C) of the same sequence?
Its value is -0.403 ± 0.16.

Which results are given for CGCGAGCAAUAUUACGACCA?
self-splicing fitness (ln) (30 °C): -1.71 ± 0.26; self-splicing fitness (ln) (37 °C): -2.4 ± 0.29

With CGCGAGCAAUAUUACGACGA as the sequence, how does the “self-splicing fitness (ln)” value (37 °C) read?
The value was -0.89 ± 0.35.

Which “self-splicing fitness (ln)” value (37 °C) does the source give for CGCGAGCAAUAUUACGAGAA here?
Its value is -2.08 ± 0.34.

For CGCGAGCAAUAUUACGAGAG, which “self-splicing fitness (ln)” value (30 °C) is on record?
Its value is -2.69 ± 0.18.

And the “self-splicing fitness (ln)” value (37 °C)?
Its value is -2.92 ± 0.31.

With CGCGAGCAAUAUUACGAUGC as the sequence, how does the “self-splicing fitness (ln)” value (37 °C) read?
The value was -2.16 ± 0.21.

For CGCGAGCAAUAUUACGAUUA, which “self-splicing fitness (ln)” value (30 °C) is on record?
The value was -3.1 ± 0.3.

What about the “self-splicing fitness (ln)” value (37 °C) of the same sequence?
Its value is -1.99 ± 0.35.

Which “self-splicing fitness (ln)” value (30 °C) does the source give for CGCGAGCAAUAUUACGCAAC here?
The value was -2.25 ± 0.31.

Which “self-splicing fitness (ln)” value (30 °C) does the source give for CGCGAGCAAUAUUACGCAGG here?
The value was -2.68 ± 0.13.

What about the “self-splicing fitness (ln)” value (37 °C) of the same sequence?
Its value is -1.88 ± 0.15.

With CGCGAGCAAUAUUACGCAUA as the sequence, how does the “self-splicing fitness (ln)” value (30 °C) read?
The value was -1.87 ± 0.32.

And the “self-splicing fitness (ln)” value (37 °C)?
The value was -2.14 ± 0.43.

What does the source list for CGCGAGCAAUAUUACGCAUC?
self-splicing fitness (ln) (30 °C): -3.36 ± 0.38; self-splicing fitness (ln) (37 °C): -0.312 ± 0.28

For CGCGAGCAAUAUUACGCCUU, which “self-splicing fitness (ln)” value (30 °C) is on record?
Its value is -2.45 ± 0.43.

For CGCGAGCAAUAUUACGCUGG, which “self-splicing fitness (ln)” value (30 °C) is on record?
The value was -1.39 ± 0.18.

What about the “self-splicing fitness (ln)” value (37 °C) of the same sequence?
The value was -1.31 ± 0.28.

Which “self-splicing fitness (ln)” value (30 °C) does the source give for CGCGAGCAAUAUUACGGAAU here?
The value was -3.2 ± 0.2.

And the “self-splicing fitness (ln)” value (37 °C)?
The value was -3.01 ± 0.25.

Which “self-splicing fitness (ln)” value (30 °C) does the source give for CGCGAGCAAUAUUACGGAUG here?
The value was -2.25 ± 0.17.

And the “self-splicing fitness (ln)” value (37 °C)?
The value was -0.671 ± 0.12.

Which “self-splicing fitness (ln)” value (30 °C) does the source give for CGCGAGCAAUAUUACGGCCU here?
The value was -2.69 ± 0.26.

What about the “self-splicing fitness (ln)” value (37 °C) of the same sequence?
Its value is -1.65 ± 0.22.

What does the source list for CGCGAGCAAUAUUACGGCGA?
self-splicing fitness (ln) (30 °C): -2.29 ± 0.24; self-splicing fitness (ln) (37 °C): -1.19 ± 0.21

With CGCGAGCAAUAUUACGGCGU as the sequence, how does the “self-splicing fitness (ln)” value (30 °C) read?
The value was -4.64 ± 0.34.

And the “self-splicing fitness (ln)” value (37 °C)?
The value was -2.9 ± 0.29.

What does the source list for CGCGAGCAAUAUUACGGGCA?
self-splicing fitness (ln) (30 °C): -0.464 ± 0.084; self-splicing fitness (ln) (37 °C): -0.0497 ± 0.11

What does the source list for CGCGAGCAAUAUUACGGGUA?
self-splicing fitness (ln) (30 °C): -2.5 ± 0.23; self-splicing fitness (ln) (37 °C): -2.11 ± 0.24

What does the source list for CGCGAGCAAUAUUACGGUGG?
self-splicing fitness (ln) (30 °C): -2.1 ± 0.1; self-splicing fitness (ln) (37 °C): -1.43 ± 0.13

With CGCGAGCAAUAUUACGUAAA as the sequence, how does the “self-splicing fitness (ln)” value (30 °C) read?
Its value is -3.8 ± 0.19.

And the “self-splicing fitness (ln)” value (37 °C)?
Its value is -2.78 ± 0.15.

Which results are given for CGCGAGCAAUAUUACGUCUU?
self-splicing fitness (ln) (30 °C): -2.32 ± 0.2; self-splicing fitness (ln) (37 °C): -2.05 ± 0.24

Which results are given for CGCGAGCAAUAUUACGUGAU?
self-splicing fitness (ln) (30 °C): -2.82 ± 0.23; self-splicing fitness (ln) (37 °C): -3.59 ± 0.37

With CGCGAGCAAUAUUACGUGCC as the sequence, how does the “self-splicing fitness (ln)” value (30 °C) read?
The value was -3.8 ± 0.42.

What about the “self-splicing fitness (ln)” value (37 °C) of the same sequence?
The value was -2.96 ± 0.48.

For CGCGAGCAAUAUUACGUGGG, which “self-splicing fitness (ln)” value (30 °C) is on record?
Its value is -3.81 ± 0.29.

What about the “self-splicing fitness (ln)” value (37 °C) of the same sequence?
Its value is -2.54 ± 0.21.

What does the source list for CGCGAGCAAUAUUACGUUGA?
self-splicing fitness (ln) (30 °C): -3.51 ± 0.25; self-splicing fitness (ln) (37 °C): -2.05 ± 0.2

With CGCUAGCAAUAUUACGAACA as the sequence, how does the “self-splicing fitness (ln)” value (30 °C) read?
Its value is -0.88 ± 0.11.

And the “self-splicing fitness (ln)” value (37 °C)?
The value was -0.227 ± 0.14.

For CGCUAGCAAUAUUACGACAG, which “self-splicing fitness (ln)” value (30 °C) is on record?
The value was -0.148 ± 0.059.

And the “self-splicing fitness (ln)” value (37 °C)?
The value was 0.297 ± 0.076.

Which “self-splicing fitness (ln)” value (30 °C) does the source give for CGCUAGCAAUAUUACGACCA here?
Its value is -1.86 ± 0.093.

What about the “self-splicing fitness (ln)” value (37 °C) of the same sequence?
The value was -1.24 ± 0.12.

What does the source list for CGCUAGCAAUAUUACGAUGU?
self-splicing fitness (ln) (30 °C): -2.56 ± 0.11; self-splicing fitness (ln) (37 °C): -1 ± 0.11
